Measurements published in US20220002429A1, “TUMOR CELL AGGREGATION INHIBITORS' FOR TREATING CANCER” (Northwestern University, priority 2018, published 2022).

Test system: TN1 PDX tumor cells
Assay: ex vivo aggregation (clustering) assay of dissociated PDX tumor cells, IncuCyte time-lapse imaging
Format: cell-based, human
Details: media supplemented with EGF (10 ng/ml)
Protocol: Cell clustering assay. Freshly dissociated primary tumor cells in single cell suspension were seeded in collagen type I-coated 96-well plates. The plates were put into the IncuCyte live cell imaging system (Essen BioScience), and live images were taken every 2-4 h for up to one week. The cluster number and size were analyzed by Incucyte ZOOM software (Essen BioScience). In specific experiments, primary tumor cells might be sorted based on the expression of CD44 prior to seeding. In other experiments, seeded tumor cells might be transfected with siRNAs (100 nM) or treated with various inhibitors during the clustering assays. For cell viability analysis during clustering, the IncuCyte Cytotox Red reagent (Essen BioScience) was added to the medium according to the manufacturer's instructions.

B1: EGF: epidermal growth factor supplemented to culture media at 10 ng/ml (protein, UniProt P01133 23-1207, looked up)
Pro-epidermal growth factor: PQHWSCPEGTLAGNGNSTCVGPAPFLIFSHGNSIFRIDTEGTNYEQLVVDAGVSVIMDFHYNEKRIYWVDLERQLLQRVFLNGSRQERVCNIEKNVSGMAINWINEEVIWSNQQEGIITVTDMKGNNSHILLSALKYPANVAVDPVERFIFWSSEVAGSLYRADLDGVGVKALLETSEKITAVSLDVLDKRLFWIQYNREGSNSLICSCDYDGGSVHISKHPTQHNLFAMSLFGDRIFYSTWKMKTIWIANKHTGKDMVRINLHSSFVPLGELKVVHPLAQPKAEDDTWEPEQKLCKLRKGNCSSTVCGQDLQSHLCMCAEGYALSRDRKYCEDVNECAFWNHGCTLGCKNTPGSYYCTCPVGFVLLPDGKRCHQLVSCPRNVSECSHDCVLTSEGPLCFCPEGSVLERDGKTCSGCSSPDNGGCSQLCVPLSPVSWECDCFPGYDLQLDEKSCAASGPQPFLLFANSQDIRHMHFDGTDYGTLLSQQMGMVYALDHDPVENKIYFAHTALKWIERANMDGSQRERLIEEGVDVPEGLAVDWIGRRFYWTDRGKSLIGRSDLNGKRSKIITKENISQPRGIAVHPMAKRLFWTDTGINPRIESSSLQGLGRLVIASSDLIWPSGITIDFLTDKLYWCDAKQSVIEMANLDGSKRRRLTQNDVGHPFAVAVFEDYVWFSDWAMPSVMRVNKRTGKDRVRLQGSMLKPSSLVVVHPLAKPGADPCLYQNGGCEHICKKRLGTAWCSCREGFMKASDGKTCLALDGHQLLAGGEVDLKNQVTPLDILSKTRVSEDNITESQHMLVAEIMVSDQDDCAPVGCSMYARCISEGEDATCQCLKGFAGDGKLCSDIDECEMGVPVCPPASSKCINTEGGYVCRCSEGYQGDGIHCLDIDECQLGEHSCGENASCTNTEGGYTCMCAGRLSEPGLICPDSTPPPHLREDDHHYSVRNSDSECPLSHDGYCLHDGVCMYIEALDKYACNCVVGYIGERCQYRDLKWWELRHAGHGQQQKVIVVAVCVVVLVMLLLLSLWGAHYYRTQKLLSKNPKNPYEESSRDVRSRRPADTEDGMSSCPQPWFVVIKEHQDLKNGGQPVAGEDGQAADGSMQPTSWRQEPQLCGMGTEQGCWIPVSSDKGSCPQVMERSFHMPSYGTQTLEGGVEKPHSLLSANPLWQQRALDPPHQMELTQ
modifications: Pro-epidermal growth factor
notes: epidermal growth factor supplemented to culture media at 10 ng/ml
cluster formation of TN primary tumor cells: increased cluster formation
